This is an account of results in US20030129638A1, “Reagents for antagonizing the protein-protein interaction between Raf-1 and apoptosis signal-regulating kinase and uses therefor” (priority 2001, published 2003).

The test system of assay [1] is ASK1-induced apoptosis in HeLa cells. Kind of assay: β-gal cell morphology-based apoptosis assay: effect of MEK inhibition on Raf-1 inhibition of ASK1-induced cell death. Details: species or system human. The settings on record: PD98059 60 μM for 18 h. The protocol:
FIG. 2B is a graphic summary of the effect of MEK inhibition by PD98059 on Raf-1 function. Six hours after transfection as in A, HeLa cells were treated with PD98059 (60 μM) or vehicle (DMSO) for 18 h before being stained with 5-bromo-4-chloro-3-indolyl-D-galactopyranoside and scored for apoptosis in a blind fashion. Specific apoptosis is derived by subtracting the level of apoptosis seen in pcDNA3-transfected cells. At least 500 cells were scored for each sample. Results shown are representative of three independent experiments.
For the nuclear morphology assays (Zhang et al. (1999) Proc. Natl. Acad. Sci. USA 96:8511-8515), 2×10^5 HeLa cells were cultured in 35-mm dishes containing glass coverslips. […] Twenty-four hours later, cells on the glass coverslips were washed, fixed (0.5% glutaraldehyde/2% formaldehyde in PBS), stained with 4′,6-diamidino-2-phenylindole (DAPI) in Vectashield mounting medium (Vector Laboratories), and visualized by using a fluorescence microscope as described (Zhang et al. (1999) Proc. Natl. Acad. Sci. USA, 96:8511-8515). Transfected cells with fragmented nuclei were scored for apoptosis in a blind fashion. […] Twenty-four hours after transfection, cells were fixed, stained with 5-bromo-4-chloro-3-indolyl-β-D-galactopyranoside, and scored for apoptosis as described (Chang et al. (1998) Science 281:1860-1863). […]

The test system of another assay is ERK1/2 activation. Kind of assay: Western blot of ERK1/2 activation in HeLa cell lysates. The conditions noted are these: HeLa cells, 60 μM. It is filed as cell-based, human. As for the experimental part:
Cell lysates from HeLa cells treated with 60 μM PD98059 or vehicle were probed by Western blotting with either an ERK1/2 activation-specific antibody (Upper; Cell Signaling Technology) or pan-ERK1/2 antibody (Lower; Cell Signaling Technology).
To test the hypothesis that Raf-1 regulates ASK1-induced apoptosis through the MEK-ERK pathway, we used two widely used MEK antagonists, PD98059 and U0126 (Dudley et al. (1995) Proc. Natl. Acad. Sci. USA 92:7686-7689; Favata et al. (1998) J. Biol. Chem. 273:18623-18632). […] To confirm the observations with PD98059 and U0126, we used a dominant negative mutant of MEK1, MEK1dn, to interfere with MEK signaling (Sugimoto et al. (1998) EMBO J. 17:1717-1727).
Background: A western blot detects proteins with antibodies after separation by electrophoresis.

Assay [2] addresses T1, protein-protein interaction between Raf-1 and ASK1 (Homo sapiens, UniProt P04049).
T1 construct: expressed in transfected cells; host or cells: COS7
Kind of assay: Coimmunoprecipitation with anti-Raf-1 antibody and Western blot for ASK1 in transfectants expressing ASK1 N-terminal domain fusion peptides. It is filed as cell-based. The settings on record: fusion peptide expressed in cells, FIG. 7. The protocol:
FIG. 7 is a Western blot analysis of Raf-1 immunoprecipitates obtained from transfectants comprising N-terminal domain truncation peptides.
(§1) Forty-eight hours after transfection, 4×10^5 COS7 cells were lysed in 300 μl of lysis buffer (0.2% Nonidet P-40/10 mM Hepes, pH 7.4/150 mM NaCl/5 mM NaF/2 mM Na3VO4/5 mM Na4P2O7/10 μg/ml aprotonin/10 μg/ml leupeptin/1 mM phenylmethylsulfonyl fluoride). Cell extracts were clarified by centrifugation and used for immunoprecipitation with various antibodies and protein G-Sepharose (Amersham Pharmacia). Immunocomplexes were washed four times with lysis buffer containing 1% Nonidet P-40 or RIPA buffer (1% Nonidet P-40/0.5% sodium deoxycholate/0.1% SDS/137 mM NaCl/20 mM Tris.HCl, pH 7.5) and resolved on SDS/PAGE (12.5%) for Western blotting. The enzyme-linked immunoblotting procedures were performed essentially as described (Zhang et al. (1999) Proc. Natl. Acad. Sci. USA 96:8511-8515). Corresponding secondary antibodies were used against each primary antibody: horseradish peroxidase-conjugated goat anti-mouse IgG for monoclonal antibodies and horseradish peroxidase-conjugated goat anti-rabbit IgG for polyclonal antibodies (Santa Cruz Biotechnology). Cross-reacting materials were visualized by using the ECL detection reagents (Amersham Pharmacia).
Coimmunoprecipitation experiments were performed using anti-Raf-1 antibody (RI9120, Transduction Laboratories) as described. […] Raf-1 immunoprecipitates were analyzed with antibodies specific for ASK1 and Raf-1 (upper panel). HA-ASK1 protein present in Raf-1 immunoprecipitates was probed with anti-ASK1 antibody H-300 (1:2000, Santa Cruz;). […] The effect of this disruption is manifested as the absence of ASK1 protein in the Raf-1 immunoprecipitates.

Assay [3] has as its system Raf-1 prosurvival effects on ASK1-induced cell death in COS7 cells. Kind of assay: DNA content-based flow cytometric apoptosis assay (sub-G0 fraction) in transfected COS7 cells. It is filed as cell-based. The settings on record: COS7 cells cotransfected with HA-ASK1, Flag-Raf-1 and ASK1 truncation construct (0.3 μg), FIG. 8. As for the experimental part:
FIG. 8 provides a graphic representation of data obtained from a DNA content-based flow cytometric apoptosis assay. The fraction of transfected cells with sub-G0 DNA content in each sample was quantified. The data presented are representative of three independent experiments.
The DNA content-based apoptosis assay was performed with a fluorescence-activated cell sorter as described (Spector et al. (1997) Cells: A Laboratory Manual (Cold Spring Harbor Lab. Press, Plainview, N.Y.). Briefly, COS7 cells (2×10^5) were cotransfected with pEGFP-F (0.4 μg; CLONTECH) encoding a farnesylated eGFP and test plasmids (1.6 μg total). Twenty-four hours after transfection, total cells were trypsinized, resuspended in PBS, fixed in ice-cold ethanol followed by overnight incubation, treated with RNase A (Sigma-Aldrich), and stained with propidium iodide (Sigma-Aldrich). Samples were analyzed with a FACSort flow cytometer (Becton Dickinson). The DNA content of transfected cells was determined by using WINMDI 2.8 software (Trotter, Scripps Research Institute, La Jolla, Calif.).
A DNA content-based flow cytometric apoptosis assay was performed to evaluate the effects of the ASK1 N-terminal domain truncation peptides on the prosurvival effects of Raf-1. COS7 cells were transfected with indicated plasmids encoding HA-ASK1 (1.0 μg), Flag-Raf-1 (0.3 μg) or ASK1 truncation constructs (0.3 μg) as indicated along with an EGFP-F expression vector (0.4 μg) as described.

For a further assay, the target named is Raf-1 (Homo sapiens, UniProt P04049). Kind of assay: Association of ASK1 N-terminal domain truncation peptides with Raf-1. The conditions noted are these: N-terminal domain fusion peptide. It is filed as binding. As for the experimental part: FIG. 6A provides a schematic representation of the ASK1 N-terminal domain truncation proteins used herein. Association of ASK1 mutants with Raf-1 is summarized. Positive interaction is represented by (+).
as §1
FIG. 6A provides a schematic representation of the ASK1 N-terminal domain truncation peptides used herein. Various truncation mutants of the ASK1 N-terminal domain were generated as shown and expressed as fusion proteins with a (His)6-tag at the N-terminus and an HA-tag at the C-terminus, except ASK-N69-163 which has the N-terminal (His)6-tag but a GST-tag at the C-terminus. Association of ASK1 mutants with Raf-1 is summarized. Positive interaction is represented by (+).

For `COc1cccc(-c2cc(=O)c3ccccc3o2)c1N` [PD98059], the “Effect on the ability of Raf-1 to inhibit ASK1-induced cell death” value in assay [1] is “did not decrease the ability of Raf-1 to inhibit ASK1-induced cell death”. Moreover, the “Activation of ERK1/2” value in the assay with ERK1/2 activation is on record as “diminished the activation of ERK1/2”.

B1: SEQ ID NO:3: amino acid residues 6 to 230 of full-length human ASK1 (SEQ ID NO:1), expressed as a (His)6/HA-tagged fusion peptide (protein, UniProt Q99683 6-230, looked up, fragment)
chain: DEGITFSVPPFAPSGFCTIPEGGICRRGGAAAVGEGEEHQLPPPPPGSFWNVESAAAPGIGCPAATSSSSATRGRGSSVGGGSRRTTVAYVINEASQGQLVVAESEALQSLREACETVGATLETLHFGKLDFGETTVLDRFYNADIAVVEMSDAFRQPSLFYHLGVRESFSMANNIILYCDTNSDSLQSLKEIICQKNTMCTGNYTFVPYMITPHNKVYCCDSSF
modifications: His6/HA tag
With B1, the “Disruption of the Raf-1/ASK1 interaction (ASK1 in Raf-1 immunoprecipitates)” value (“Disruption of the Raf-1/ASK1 interaction” below) in assay [2] is “disrupts the protein-protein interaction between Raf-1 and ASK1”. Besides, the “Effect on Raf-1 prosurvival effects on ASK1-induced cell death” value (from here on “Effect on Raf-1 prosurvival effects”) in assay [3] is given as “eliminates Raf-1 prosurvival effects on ASK1-induced cell death”. In addition, the “Binding to Raf-1” value in the assay with Raf-1 is listed as “ability to bind Raf-1”.

B2: SEQ ID NO:7: amino acid residues 6 to 163 of the full-length human ASK1 sequence set forth in SEQ ID NO:1 (protein, UniProt Q99683 6-163, looked up, fragment)
chain: DEGITFSVPPFAPSGFCTIPEGGICRRGGAAAVGEGEEHQLPPPPPGSFWNVESAAAPGIGCPAATSSSSATRGRGSSVGGGSRRTTVAYVINEASQGQLVVAESEALQSLREACETVGATLETLHFGKLDFGETTVLDRFYNADIAVVEMSDAFRQP
As for B2, the “Disruption of the Raf-1/ASK1 interaction” value in assay [2] was “disrupts the protein-protein interaction between Raf-1 and ASK1”. Further, in assay [3], the “Effect on Raf-1 prosurvival effects” value is on record as “eliminates Raf-1 prosurvival effects on ASK1-induced cell death”. In the assay with Raf-1, the “Binding to Raf-1” value is “ability to bind Raf-1”.

B3: SEQ ID NO:8: amino acid residues 69 to 230 of the full-length human ASK1 sequence set forth in SEQ ID NO:1 (protein, UniProt Q99683 69-230, looked up, fragment)
chain: AATSSSSATRGRGSSVGGGSRRTTVAYVINEASQGQLVVAESEALQSLREACETVGATLETLHFGKLDFGETTVLDRFYNADIAVVEMSDAFRQPSLFYHLGVRESFSMANNIILYCDTNSDSLQSLKEIICQKNTMCTGNYTFVPYMITPHNKVYCCDSSF
For the molecule B3, in assay [2], the “Disruption of the Raf-1/ASK1 interaction” value is “disrupts the protein-protein interaction between Raf-1 and ASK1”. The “Effect on Raf-1 prosurvival effects” value in assay [3] was “eliminates Raf-1 prosurvival effects on ASK1-induced cell death”. In addition, the “Binding to Raf-1” value with Raf-1 is “ability to bind Raf-1”.
